In the supplement of paper PMC12764529:
± gives the half width of the 95% confidence interval.

Assays:
[1] = folding stability dG unfold from chymotrypsin proteolysis; higher = more stable
Summary of the method: (§1)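 Only designs with AlphaFold2 dimer inter-PAE above 15 were retained; each was a mini-protein under 80 residues with no cysteine, in a PA-tagged cDNA display construct. After digestion with trypsin and chymotrypsin and sequencing, K50 was inferred by Bayesian fitting of counts, and unfolding free energy was derived per protease or combined against a sequence-predicted unfolded-state K50 and a shared folded-state K50.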

[2] = folding stability dG unfold (combined trypsin and chymotrypsin); higher = more stable
Summary of the method: as §1

[3] = folding stability dG unfold from trypsin proteolysis; higher = more stable
Summary of the method: as §1

Row | Sequence | folding stability dG unfold [1] | folding stability dG unfold [2] | folding stability dG unfold [3]
1 | SAGGSAGGSAGGNIKVDDVHHNPNNYRQVKIDLPGGKPIKIWMSMDDPNNVKEIAKEIFSAGGSAGGSAGGS [r10_472_TrROS] | -0.414 ± 0.18 kcal/mol | -0.22 ± 0.1 kcal/mol | -0.191 ± 0.048 kcal/mol
2 | SAGGSAGGSAGGNITVTEDGWIVIEIPYYSPDGGPSPITIVIPIPKMPPEEAEELADKGSAGGSAGGSAGGS [r10_1096_TrROS] | 1.04 ± 0.14 kcal/mol | 1.11 ± 0.14 kcal/mol | 1.13 ± 0.14 kcal/mol
3 | SAGGSAGGSAGGNNLYSTSTTVLSTVPVRPDETVTRPGTGAPVSPSETVALSTTSTAPSLSAGGSAGGSAGG [r11_793_JUSTAS] | -0.729 ± 0.081 kcal/mol | 0.246 ± 0.054 kcal/mol | 0.629 ± 0.026 kcal/mol
4 | SAGGSAGGSAGGPDAAPSAVREYVLVTVPVYAENGTPLGPVTVVAPASVSLAAVADAVFNSAGGSAGGSAGG [r7_109_TrMRF] | 0.368 ± 0.19 kcal/mol | 0.399 ± 0.11 kcal/mol | 0.292 ± 0.077 kcal/mol
5 | SAGGSAGGSAGGPDDWVEVYFIMVSIKPKEVKPDPNGGAEYEFEIKISIFPFWIPPDDISAGGSAGGSAGGS [r10_524_TrROS] | 4.15 ± 0.18 kcal/mol | 3.94 ± 0.22 kcal/mol | 3.33 ± 0.26 kcal/mol
6 | SAGGSAGGSAGGPDWRMISIPITFRFYVMEYDGGKPKKAEPIHEHPIPIMIMFPPDALKSAGGSAGGSAGGS [r10_492_TrROS] | 3.35 ± 0.014 kcal/mol | 2.91 ± 0.07 kcal/mol | 1.87 ± 0.032 kcal/mol
7 | SAGGSAGGSAGGPENDWREVDIKIKFENPEGKPIFDIKIYYMPDGDIMIYFPNGNWIWISAGGSAGGSAGGS [r10_972_TrROS] | 4.14 ± 0.065 kcal/mol | 3.75 ± 0.17 kcal/mol | 2.42 ± 0.14 kcal/mol
8 | SAGGSAGGSAGGPKAIVTEVEVEPNTGKARLKVKVYDPVTGKFSEFEVEVETTGKDLNLSAGGSAGGSAGGS [r10_173_TrMRF] | 2.37 ± 0.074 kcal/mol | 1.89 ± 0.11 kcal/mol | 1.08 ± 0.049 kcal/mol
9 | SAGGSAGGSAGGPKAPGDKAVPATVEVRVTEYAVVPGLGEKLEKLPEKTFKATFVFFNKSAGGSAGGSAGGS [r10_122_TrMRF] | 0.611 ± 0.11 kcal/mol | 0.286 ± 0.092 kcal/mol | -0.48 ± 0.26 kcal/mol
10 | SAGGSAGGSAGGPKLVLKIKTEIKIEKKLEFDPETGELTEEIEIEIKIEIELEPLPEGLSAGGSAGGSAGGS [r10_376_TrROS_Hall] | 3.24 ± 0.35 kcal/mol | 2.83 ± 0.96 kcal/mol | 1.32 ± 0.25 kcal/mol
11 | SAGGSAGGSAGGPKVEVLEVFEFGDLRFVKVYDPETGKVTLLAVTRSDGSKVTFFNPEESAGGSAGGSAGGS [r10_655_TrMRF] | 2.58 ± 0.053 kcal/mol | 2.23 ± 0.15 kcal/mol | 1.42 ± 0.056 kcal/mol
12 | SAGGSAGGSAGGPLKVEVIGSIEGDDRVYVLTRVPGVGGLFVAEYEKPSGKILSVSPVPLSAGGSAGGSAGG [r7_154_TrMRF] | 1.3 ± 0.15 kcal/mol | 1.07 ± 0.081 kcal/mol | 0.743 ± 0.065 kcal/mol
13 | SAGGSAGGSAGGPLPGKPPLRLKLFTLTVRTRTYRKTEDGTWEEVEESEAEITVLVLEPVSAGGSAGGSAGG [r7_506_TrROS_Hall] | 4.99 ± 0.17 kcal/mol | 4.71 ± 0.14 kcal/mol | 3.45 ± 0.11 kcal/mol
14 | SAGGSAGGSAGGPMPVSVSPIGTKVEKTEEPLVVETTTTLSDAEGPPVTTTTTTVTPPSTSAGGSAGGSAGG [r11_129_JUSTAS] | 1.33 ± 0.1 kcal/mol | 1.35 ± 0.13 kcal/mol | 1.27 ± 0.08 kcal/mol
15 | SAGGSAGGSAGGPPSVPITITLIILFPDGYFIVIELTIEVPPDGEIEIKIKILHIFPVKSAGGSAGGSAGGS [r10_1139_TrROS] | 3.76 ± 0.12 kcal/mol | 3.6 ± 0.12 kcal/mol | 3.1 ± 0.093 kcal/mol
16 | SAGGSAGGSAGGPRMTVVDLDPEKGDHLYLVEIPDTNEVVLVSSSELLRLAEAGPVELKGSAGGSAGGSAGG [r7_452_TrMRF] | 0.115 ± 0.062 kcal/mol | 0.129 ± 0.14 kcal/mol | -0.107 ± 0.27 kcal/mol
17 | SAGGSAGGSAGGPRPLRRELRIRRRFRFRVLGLEEGEPRPREFEVEVELVLVETRGPGESAGGSAGGSAGGS [r10_118_TrMRF] | 4.31 ± 0.093 kcal/mol | 3.84 ± 0.21 kcal/mol | 2.65 ± 0.082 kcal/mol
18 | SAGGSAGGSAGGPRTIYIPVKVEPDPNGKWKIDIEEIAKNLPDVKITSITPNYIKITFPASAGGSAGGSAGG [r11_771_TrROS] | 1.38 ± 0.13 kcal/mol | 1.08 ± 0.16 kcal/mol | 0.398 ± 0.18 kcal/mol
19 | SAGGSAGGSAGGPRTLTLTVTLTRTYYDEETGEEVETETETLTLTLRLEPPPPLSPEQLSAGGSAGGSAGGS [r10_50_TrROS_Hall] | 3.19 ± 0.07 kcal/mol | 2.99 ± 0.17 kcal/mol | 2.69 ± 0.061 kcal/mol
20 | SAGGSAGGSAGGPTVTLTLEVPVEDAEELAKALEDAGKARVTKVERNEDGFLRITVEFEDSAGGSAGGSAGG [r7_589_TrROS_Hall] | 1.28 ± 0.027 kcal/mol | 1.06 ± 0.075 kcal/mol | 0.593 ± 0.048 kcal/mol
21 | SAGGSAGGSAGGPVRIVMKPSDIEYLLEKFGVEPLEIEEVEEDYVVVTITPEALKEAGLGSAGGSAGGSAGG [r7_587_TrMRF] | 0.737 ± 0.049 kcal/mol | 1.01 ± 0.18 kcal/mol | 1.1 ± 0.065 kcal/mol

Row | Sequence | folding stability dG unfold [1] | folding stability dG unfold [2] | folding stability dG unfold [3]
22 | SAGGSAGGSAGGPYVVKVKLKDGSVVELPVEEDHIPTIEDLVKAGIPPELIESVEIEPESAGGSAGGSAGGS [r10_565_TrMRF] | 3.09 ± 0.093 kcal/mol | 2.91 ± 0.1 kcal/mol | 2.57 ± 0.12 kcal/mol
23 | SAGGSAGGSAGGRKLAIKIEIEEVKTETRIRPDGKTETRTELRIKIEIRPVPHPDDPELLSAGGSAGGSAGG [r7_523_TrROS_Hall] | 1.95 ± 0.056 kcal/mol | 2.34 ± 0.25 kcal/mol | 2.99 ± 0.12 kcal/mol
24 | SAGGSAGGSAGGRKRYRFKPGQRLEPRLVFRLKLRLELERDEDGNLSLKLELEIEEVRLLSAGGSAGGSAGG [r7_572_TrROS_Hall] | 4.41 ± 0.098 kcal/mol | 4.09 ± 0.29 kcal/mol | 3.35 ± 0.13 kcal/mol
25 | SAGGSAGGSAGGRLVVFEVKKDELNITGPGEARVVSVEELPGDRVRVVVEVPEGAVPGLASAGGSAGGSAGG [r17_48_TrMRF] | 1.27 ± 0.066 kcal/mol | 0.935 ± 0.12 kcal/mol | 0.324 ± 0.084 kcal/mol
26 | SAGGSAGGSAGGSADKNGYVKIPITVFTMERYGNGQPKMETVKVEIYVPPGESIEDLLQSAGGSAGGSAGGS [r4_283_TrROS] | 0.166 ± 0.32 kcal/mol | 0.247 ± 0.22 kcal/mol | 0.0466 ± 0.19 kcal/mol
27 | SAGGSAGGSAGGSAGVIVSLSPAPPSADTVVELPKGVTVTVTTVNGERVLTTLVPEALLSAGGSAGGSAGGS [r10_355_JUSTAS] | 0.00971 ± 0.032 kcal/mol | 0.217 ± 0.048 kcal/mol | 0.365 ± 0.013 kcal/mol
28 | SAGGSAGGSAGGSAKITIEYNPETNTLTVTITLENGEKVEITVPPNATLEEIEELAKKASAGGSAGGSAGGS [r4_205_TrROS_Hall] | 2.49 ± 0.11 kcal/mol | 3.04 ± 0.3 kcal/mol | 3.41 ± 0.28 kcal/mol
29 | SAGGSAGGSAGGSAPPKVEIEVTVLVKDEDGRLYVFKAKATFDLETNELTVEVEVYELPSAGGSAGGSAGGS [r4_445_TrROS_Hall] | 4.79 ± 0.13 kcal/mol | 4.66 ± 0.35 kcal/mol | 3.22 ± 0.39 kcal/mol
30 | SAGGSAGGSAGGSDDFVLRYRRRVRRKPKEVRLLPNGELVTGWEEEVSTFPVLTHPDDDSAGGSAGGSAGGS [r10_524_TrMRF] | 0.5 ± 0.065 kcal/mol | 0.448 ± 0.044 kcal/mol | 0.239 ± 0.11 kcal/mol
31 | SAGGSAGGSAGGSDNDGAKPPKIKVEIHPVNMPPGDIVVHNDHYVIAFPNGWFFVIRPKSAGGSAGGSAGGS [r4_394_TrROS] | 1.61 ± 0.16 kcal/mol | 1.32 ± 0.14 kcal/mol | 0.911 ± 0.064 kcal/mol
32 | SAGGSAGGSAGGSDNKAILGDVPIKFYDKNGKPVITAKIGYFPDGRVVIYFPDGSKIEASAGGSAGGSAGGS [r10_972_TrMRF] | 1.04 ± 0.023 kcal/mol | 1.25 ± 0.038 kcal/mol | 1.48 ± 0.04 kcal/mol
33 | SAGGSAGGSAGGSDNSITLDFFFNNYYIKITFNPWNGNLEIDEVQKVPPPPKPKDPGDKSAGGSAGGSAGGS [r4_21_TrROS] | 3.19 ± 0.091 kcal/mol | 2.94 ± 0.22 kcal/mol | 2.71 ± 0.13 kcal/mol
34 | SAGGSAGGSAGGSDTPGNYKKVKITLKRVTLGDNNTPKVETVELEVTVPPNYTLEDVLSSAGGSAGGSAGGS [r4_283_TrMRF] | 1.1 ± 0.14 kcal/mol | 1.14 ± 0.16 kcal/mol | 0.976 ± 0.072 kcal/mol
35 | SAGGSAGGSAGGSEEEIKKLAAEGGSFTATIPVVTPDGKPVEKTVTVEVKTDPKTGKLVSAGGSAGGSAGGS [r10_346_JUSTAS] | 0.906 ± 0.025 kcal/mol | 0.791 ± 0.083 kcal/mol | 0.482 ± 0.043 kcal/mol
36 | SAGGSAGGSAGGSEGAPIRVTLTGTRTETRTRPDGSPVTDSGTDTVEFTLDLYDPEKSGSAGGSAGGSAGGS [r4_450_TrMRF] | -0.0249 ± 0.13 kcal/mol | -0.363 ± 0.21 kcal/mol | -1.4 ± 0.66 kcal/mol
37 | SAGGSAGGSAGGSEKPPIKLKIKVYDPETNELVSEVEVELEPGQSLEELLKKFDVVEIESAGGSAGGSAGGS [r4_187_TrROS_Hall] | 2.94 ± 0.064 kcal/mol | 2.66 ± 0.12 kcal/mol | 1.71 ± 0.1 kcal/mol
38 | SAGGSAGGSAGGSEVEVTTRPDGSIVARVRLPDGGVLTLVAEVGPDGSVVVTEASLSPESAGGSAGGSAGGS [r4_246_TrMRF] | 1.94 ± 0.027 kcal/mol | 1.66 ± 0.052 kcal/mol | 0.856 ± 0.026 kcal/mol
39 | SAGGSAGGSAGGSFDIEQERNPENGYHRVTIDFPNGPPVEIWMPPGSTLEQIEDLAKQFSAGGSAGGSAGGS [r4_205_TrROS] | 0.658 ± 0.1 kcal/mol | 0.878 ± 0.12 kcal/mol | 1.07 ± 0.036 kcal/mol
40 | SAGGSAGGSAGGSFEVVSVDETVTVPPGATVTIVVRDENGKLLTFTFEVRLVPPPPEEESAGGSAGGSAGGS [r10_573_TrROS_Hall] | 1.95 ± 0.072 kcal/mol | 1.86 ± 0.18 kcal/mol | 1.58 ± 0.1 kcal/mol
41 | SAGGSAGGSAGGSFKIKDIEVNPDALKKGNFIQIRIENGWVIHINPNGEIEVVELPPDASAGGSAGGSAGGS [r4_373_TrROS] | 1.59 ± 0.072 kcal/mol | 1.25 ± 0.095 kcal/mol | 0.356 ± 0.083 kcal/mol
42 | SAGGSAGGSAGGSGLYLRLFDPGTGNVVAEVRVEIAPDGSLIAEARVADVPPVEDPEKASAGGSAGGSAGGS [r4_178_TrMRF] | 2.39 ± 0.072 kcal/mol | 1.85 ± 0.17 kcal/mol | 0.712 ± 0.048 kcal/mol
